Publication PMC11757908

Biological target: trastuzumab (human)
Experiment: charge-stabilized self-interaction nanoparticle spectroscopy

trastuzumab (antibody)
CS-SINS score: 0.1
